Results from paper PMC11060673.

Molecular target: His-LHP1 (recombinant Prunus mume Like Heterochromatin Protein 1) (Prunus mume (Japanese apricot))
Test: SPR; BIAcore X-100; PmLHP1 immobilized on a CM5 sensor chip by amine coupling; target protein diluted in a gradient; steady-state affinity model

Kd: 20.6 µM
Substance: Gst-AGL24 (recombinant Prunus mume AGAMOUS-like 24) (natural protein)
